Data on 1 substance can be found in patent US6060595.

The experiment deals with HBV 21 kDa viral core protein (p21) (human hepatitis B virus (HBV)).

For “Met-p22 (precore protein lacking the signal peptide sequence and having instead an initial methionine), expressed from pCMVKM22”, the HBV DNA replication, titration of plasmid molar ratios came to 15 fold.
